Reference: paper doi:10.1101/797449

Biological target: dsRBD1 of human TAR RNA Binding Protein (TRBP2) (human)
Experiment: SEC-MALS

Which population of tetramer relative to monomer does the source give for “dsRBD1 of human TAR RNA Binding Protein (TRBP2) (domain or fragment)” here?
Its population of tetramer relative to monomer is 0.25.

And the stoichiometry N?
The stoichiometry N was 4.
